# Laboratory results: patent US20250277788A1 (GUIZHOU MEDICAL UNIVERSITY, published 2025)
# B1: H6-AP fusion protein (single-chain antibody H6 fused to alkaline phosphatase) (other)
# chain: MAEVKLAESGPELVRPGVSVKISCKGSGYTFTDYPMHWVKQSHAKSLEWIGVISTYSGNTNYNQKFRGKATMTVDKSSSTAYMELARLTSEDSAIYYCTRGGNYGFDPWGQGTTLTVSSAKTTAPSVGGGGSGGGGSGGGGSDIQMTQSHKFLSTSVGDRVNITCKASQDVGTAVAWYQQKPGQSPKLLIYWASTRHTGVPDRFTGSGSGTDFTLTITNVQSEDLAEYFCQQYSSYPLTFGSGTKIEMKRAVDSSGSTSGSGKPGSGEGSTAAAARAPEMPVLENRAAQGDITAPGGARRLTGDQTAALRDSLSDKPAKNIILLIGDGMGDSEITAARNYAEGAGGFFKGIDALPLTGQYTHYALNKKTGKPDYVTSSAASATAWSTGVKTYNGALGVDIHEKDHPTILEMAKAAGLATGNVSTAELQDATPAALVAHVTSRKCYGPSATSEKCPGNALEKGGKGSITEQLLNARADVTLGGGAKTFAETATAGEWQGKTLREQAQARGYQLVSDAASLNSVTEANQQKPLLGLFADGNMPVRWLGPKATYHGNIDKPAVTCTPNPQRNDSVPTLAQMTDKAIELLSKNEKGFFLQVEGASIDKQDHAANPCGQIGETVDLDEAVQRALEFAKKEGNTLVIVTADHAHASQIVAPDTKAPGLTQALNTKDGAVMVMSYGNSEEDSQEHTGSQLRIAAYGPHAANVVGLTDQTDLFYTMKAALGDIAHHHHHH
# notes: also called fusion protein H6-AP
# B2: SARS-COV-2 N protein-specific single-chain antibody H6 (scFv, V domains shown)
# VH: EVKLAESGPELVRPGVSVKISCKGSGYTFTDYPMHWVKQSHAKSLEWIGVISTYSGNTNYNQKFRGKATMTVDKSSSTAYMELARLTSEDSAIYYCTRGGNYGFDPWGQGTTLTVSS
# notes: also called H6 antibody; scFv H6; not shown: C-terminal tags from the pHENHi vector (c-myc and a His tag, with the NotI junction)
# Assays:
# [1] = target: T1, recombinant SARS-COV-2 N protein (SARS-COV-2, UniProt P0DTC9 1-419); assay: direct ELISA, N protein coated at 5 µg/mL, pNPP colour development for 90 min
# T1 construct: also called nucleocapsid protein
# [2] = target: T1, recombinant SARS-COV-2 N protein; assay: direct ELISA, N protein coated at 5 µg/mL, pNPP colour development
# [3] = target: T1, recombinant SARS-COV-2 N protein; assay: SPR (UA Biotech); orientation not stated
Binder,fold of OD405 nm over control group (blank blocked wells) at 90 min [1] [fold],fold of OD405 nm over control group (blank blocked wells) [2] [fold],Kd [3] [pM],koff [3] [s⁻¹],kon [3] [M⁻¹ s⁻¹]
B1,31,16,–,–,–
B2,–,–,298,0.000286,958000
